The supplement of paper PMC9170038
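Further: bound reporter read as fluorescence of individual clusters on recovered sequencing chips by microscopy, with normalized cluster intensities fitted with a binding model.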

These sequences were tested on K4 kissing-loop RNA reporter (assay: apparent KD of K4 kissing-loop reporter; higher = weaker reporter binding). Details: Eterna round: R107; input ligand: none.
Experimental: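 RNA-MaP round R107: designed RNA switches with theophylline, tryptophan, arginine or FMN aptamers are transcribed on-chip within common flanks. They are titrated with a labelled K4 kissing-loop RNA reporter in RNA-MaP buffer (100 mM Tris pH 7.5, 80 mM KCl, 4 mM MgCl2), without ligand or with the indicated ligand. Median apparent KD per design.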
In the case of “AAAACUAUCAGAAGGAGCGUGGAAUAUUCAUCUGUAUUUAAUACGAGUGAUGUUCGUAAUUCACAGGUAGGUCGCUGAUCAAUAA [whbob_Ex_Arginine_B_2th154]”, the “apparent KD of K4 kissing-loop reporter” value is reported as 0.306 µM. “AGACUACCACACUGUCAAUAGACAGUGUACUAGGAUAUGCUGAUAAGCAGAAGGAGUGAUGUUCCGAGGUAGUCAAUAAAAUAAU [FmnAX 13 U28+G66]” was tested, and the “apparent KD of K4 kissing-loop reporter” value was 0.253 µM. “GUUACGCAUGGAAGGAGCGCGAUUAAAUUUAGUGAGUGAUGUUCACAAAAUAAAACUAAAACGCAGGUAGGUCGCCAUGUGUAAC [Ex Arginine B K4 2]” was tested, and the “apparent KD of K4 kissing-loop reporter” value was 0.188 µM. In the case of “AAGUGAUGUUGUAGUGAUGUUGUGAUGUUGCAGGAUAUAUAGUGAUGUAGAAGGGUAUGUACAGAUUUUUUUUUUGAGUGAUGAU [ffdcmullin]”, the “apparent KD of K4 kissing-loop reporter” value is reported as 0.0649 µM. “GUCCAAACACAGUGAUGUUGUGAAUAUGAAGGAGCGGACGAAAGUCCAGGUAGGUCGCAUAAAGGACACCUACGAAAAGUAGGAA [#SwitchBubble 5 #K4Early]” was tested, and the “apparent KD of K4 kissing-loop reporter” value was 0.228 µM. For “UGACUGGACUGAAGGAGCGCUUAACUCCUAGUGAUGUUAGGACAACGAGACAAAGUCUCGAAGCAGGUAGGUCGCAGUCUAGUCU”, the “apparent KD of K4 kissing-loop reporter” value was 0.204 µM. “UGACUGGACUGAAGGAGCGCUAAACUCCUAGUGAUGUUAGGAAAUACGAGACAAAGUCUCGGGCAGGUAGGUCGCAGUCUAGUCU [ArgBS 19 #SwitchBubble #StaticStem]” was tested, and the “apparent KD of K4 kissing-loop reporter” value was 0.132 µM. With “AUUCUAUUGUGAAGGAGCGCGACUAGUAGUGAUGUUACUAUAUGACUUUAGUCUUAAUUCUCGCAGGUAGGUCGCACAAUAUAUA [JR_Nu_SSArginiB_Sub028]” the “apparent KD of K4 kissing-loop reporter” value was 0.796 µM. “GGUUCUGUUUUAGGUUUAGUGAUGUUGAAUCGAGGACCGGUACGGCCGCCACUCGGUGACGUCGUAACUUUGGAGGUCCUAACCA [theeternabot_exclusion_KL_Trp_A_47]” was tested, and the “apparent KD of K4 kissing-loop reporter” value was 0.665 µM. In the case of “ACUGCCAUUGCGGCCGCCACUAUCUCACUUUGCGAAUCUGCACCGACUGAGUGAUGUUCGGUAAAUAGGACCGGGCAAUGGGCCG [theeternabot_sameState_KL_Trp_B_26]”, the “apparent KD of K4 kissing-loop reporter” value is reported as 0.633 µM. For “GCCGUAGAUCGAAGGAGCGUGCAAGAAUCGUAGUGAUGUUACGGAGAGUGUCACGCCGUCGCACAGGUAGGUCGCGAUCUACGGC”, the “apparent KD of K4 kissing-loop reporter” value was 0.0841 µM. In the case of “GGAGGGAUCUCGGCCGCCACUCAUAAGAAAUGGGCCUCAGGGAUAUAGUGAUGUUAUGUAAAGAAGAGGACCGGGAGAAAGAAGG [ExTryptoB.Dc]”, the “apparent KD of K4 kissing-loop reporter” value is reported as 0.248 µM. With “GGAUCCACCAGUGAUGUUGGAGAAAACUCGAAGGAUAUGACGAAAGUCAGAAGGUUGUAGACUGGACAAAGUCCGGUCGGAUCCA [FmnA 23 G30+U56]” the “apparent KD of K4 kissing-loop reporter” value was 0.549 µM. For “AAGGGCAGGACUUCCUUGCCGGAUAGAGAUACCAGCCCAGCAAAGGGCCCUUGGCAGCUCACUGACCUCAGUGAUGUUGAGGUUC [Xebisoer]”, the “apparent KD of K4 kissing-loop reporter” value was 0.332 µM. With “GCUACCUAUGCAGGAUAUGGUAUUACGAGUGAUGUUCGAGGCGAAUAGAGUGAUGUUCUAUUUCCACCAGAAGGGCAUAGGUAGC” the “apparent KD of K4 kissing-loop reporter” value was 0.125 µM. With “UAUUAAUUGUCAGGAUAUCGAAAUCGAGUGAUGUUCGUAUAUCGACGAUAGUCGAUAUUAUUUAUACGAGAAGGGACAUUAUUUA [JR_SSFMNB_Sub003]” the “apparent KD of K4 kissing-loop reporter” value was 0.615 µM. In the case of “UCCUAGGCUCGAAAGAGCCUAGGUAAGACUCAGGAUAUCUGGAAACAGAGAAGGGAGCUACUAGUGAUGUUAGGAAUUCCCUAAG”, the “apparent KD of K4 kissing-loop reporter” value is reported as 0.124 µM.

Same assay, conditions: Eterna round: R107; input ligand: theophylline 20 uM
“UGGAGUUGACGAAAAGUCAACUCCCGAGAAGGAGCGGACGAAAGUCCAGGUAGGUCGCUCGCUACCAGUGAUGUUGGUACAUAAA” was tested, and the “apparent KD of K4 kissing-loop reporter” value was 0.147 µM. “AGUACAAUGGCGGCCGCCACUCAAUGGCAGAUCAAAGAUCUGUAUCACUCAGUGAUGUUGAGUGAGAGGACCGGGCCUUUGUACA [Omei KL Tryp B SS B v9]” was tested, and the “apparent KD of K4 kissing-loop reporter” value was 0.514 µM. For “AUUUAGACGAGUGAUGUUCGUGUUAAUACAGAGGAUAUGCGUGAUUGCAGAAGGCUGUAUUUAUAUAUGUUAUGUGGUUUUAAAA [whbob_Ex_FMNA__2th187]”, the “apparent KD of K4 kissing-loop reporter” value was 0.0997 µM. With “AAAAUAAGCCAGUGAUGUUGGUAUCCAGAUACCAGCGACGAAAGUCGCCCUUGGCAGCUGUGGACGUACAAAAUAAGUACGUCCU” the “apparent KD of K4 kissing-loop reporter” value was 0.266 µM. “AACUGUCAAGGAACUUGCAACAAAGGUGAUACCAGCAUCGAAAGAUGCCCUUGGCAGCACCAACUUGCAGUGAUGUUGCAAGUAA [(T)'-(H)'-(T1)-(T2)-(H1)-(H2)_Design7]” was tested, and the “apparent KD of K4 kissing-loop reporter” value was 0.402 µM. With “AAUUUAUUAACUGAUACCAGACUUUAAUUUAUAUAUAUGUCUAGUGAUGUUAAACAUAUUGUCCCUUGGCAGCAGUAUUUAUUAA [JR_SSTheophyB_Sub020]” the “apparent KD of K4 kissing-loop reporter” value was 0.768 µM. In the case of “CGAGUGAUGUUCGAAGAGUUGUUAAGCGAUACCAGCUAGGAGACUGGCCCUUGGCAGCGUAAUAAGUUAAUAAAUAAAUGAUCAC [whbob_Ex_Theo_A_th65]”, the “apparent KD of K4 kissing-loop reporter” value is reported as 0.506 µM. “AAAUAGAUCAGUCAUCCAGUGAUGUUGGAAGGAGCGUGCGAAAGCACAGGUAGGUCGCCAAAAUAAAACUGGCUGAUCAAAAUAA” was tested, and the “apparent KD of K4 kissing-loop reporter” value was 0.453 µM. In the case of “AUUUAGACGAGUGAUGUUCGUGUUAUUACAGAGGAUAUGCGUAAAAGCAGAAGGCUGUAUUUAUAUUUGUUAUGUAAUUUUAAAA [JR_ExcFMNA_Sub006]”, the “apparent KD of K4 kissing-loop reporter” value is reported as 0.094 µM. With “UUAGAAGUAUACUUCAAGAGGUAUGCUGAUACCAGAGUCAAUUGACUCCCUUGGCAGCGGAUCGAGUGAUGUUCGUAACCUCAUU [AK3.1 SS Theophylline A]” the “apparent KD of K4 kissing-loop reporter” value was 0.246 µM. For “CGCGCUGCCUGAGGAUAUAGAAACGAGUGAUGUUCGUGGACAAGAGCCAGUGAUGUUGGGUUAUUUCUAGAAGGCAGGCGAUCGU [Exclusion FMN B GF5]”, the “apparent KD of K4 kissing-loop reporter” value was 0.125 µM. “CACCUAGGUACGGCCGCCACUAGAAGUGAUGUUUCGUCUGGUUCCGCAUUACGUGUACUUUCUUAUAGGACCGGGUAGCAAAUAG [theeternabot_exclusion_KL_Trp_B_3]” was tested, and the “apparent KD of K4 kissing-loop reporter” value was 0.258 µM. With “CGUCACACUUGAUGGUUAUCCAAUGAUGAUACCAGCCGUCGAGAUGGCCCUUGGCAGCAUGUGGUACAGUGAUGUUGUACAUUGG [theeternabot_sameState_KL_Theo_A_30]” the “apparent KD of K4 kissing-loop reporter” value was 0.352 µM. For “UGUAUGUGAUUUGAUACCAGACCAGUUGGUGGUAUAUGAGUGAUGUUUAUGUUGGUUUGGGUCCCUUGGCAGCAAAUCGCAUACU [KL-SSTheoB11]”, the “apparent KD of K4 kissing-loop reporter” value was 0.356 µM. In the case of “AAAUUCUUUUUUUUAUAUAACAAUUCAGAAGGAGCGUGGUAGAACACAGGUAGGUCGCUGAAUAUAAGACUAGUGAUGUUAGUAA [JR_SSArginiA_Sub010]”, the “apparent KD of K4 kissing-loop reporter” value is reported as 0.214 µM. In the case of “AAGGUAUCUAGAUGCUAGCAACAACUAGAUACCAGCAUCGAAAGAUGCCCUUGGCAGCUAGCAGUGAUGUUGCUAGCAAUAAGAA [Design4]”, the “apparent KD of K4 kissing-loop reporter” value is reported as 0.158 µM. In the case of “AAAACUAUCAGAAGGAGCGUGGAAUAUUCAUCUGUAUUUAAUACGAGUGAUGUUCGUAAUUCACAGGUAGGUCGCUGAUCAAUAA [whbob_Ex_Arginine_B_2th154]”, the “apparent KD of K4 kissing-loop reporter” value is reported as 0.305 µM. For “AGACUACCACACUGUCAAUAGACAGUGUACUAGGAUAUGCUGAUAAGCAGAAGGAGUGAUGUUCCGAGGUAGUCAAUAAAAUAAU [FmnAX 13 U28+G66]”, the “apparent KD of K4 kissing-loop reporter” value was 0.33 µM. “GUUACGCAUGGAAGGAGCGCGAUUAAAUUUAGUGAGUGAUGUUCACAAAAUAAAACUAAAACGCAGGUAGGUCGCCAUGUGUAAC [Ex Arginine B K4 2]” was tested, and the “apparent KD of K4 kissing-loop reporter” value was 0.199 µM. “AAGUGAUGUUGUAGUGAUGUUGUGAUGUUGCAGGAUAUAUAGUGAUGUAGAAGGGUAUGUACAGAUUUUUUUUUUGAGUGAUGAU [ffdcmullin]” was tested, and the “apparent KD of K4 kissing-loop reporter” value was 0.0481 µM. With “GUCCAAACACAGUGAUGUUGUGAAUAUGAAGGAGCGGACGAAAGUCCAGGUAGGUCGCAUAAAGGACACCUACGAAAAGUAGGAA [#SwitchBubble 5 #K4Early]” the “apparent KD of K4 kissing-loop reporter” value was 0.222 µM. For “UGACUGGACUGAAGGAGCGCUUAACUCCUAGUGAUGUUAGGACAACGAGACAAAGUCUCGAAGCAGGUAGGUCGCAGUCUAGUCU”, the “apparent KD of K4 kissing-loop reporter” value was 0.198 µM. With “UGACUGGACUGAAGGAGCGCUAAACUCCUAGUGAUGUUAGGAAAUACGAGACAAAGUCUCGGGCAGGUAGGUCGCAGUCUAGUCU [ArgBS 19 #SwitchBubble #StaticStem]” the “apparent KD of K4 kissing-loop reporter” value was 0.128 µM. For “AUUCUAUUGUGAAGGAGCGCGACUAGUAGUGAUGUUACUAUAUGACUUUAGUCUUAAUUCUCGCAGGUAGGUCGCACAAUAUAUA [JR_Nu_SSArginiB_Sub028]”, the “apparent KD of K4 kissing-loop reporter” value was 0.732 µM.
